According to article PMC5772480, “Galectin-13, a different prototype galectin, does not bind β-galacto-sides and forms dimers via intermolecular disulfide bridges between Cys-136 and Cys-138” (Scientific Reports, 2018):
Substitutions are numbered along the chain they refer to. Converted amounts (≈) assume the structure as drawn.

T1: Gal-13 (galectin-13, placental protein 13, PP13) (Homo sapiens, UniProt Q9UHV8, R53H)
T1 construct: gene LGALS13; full length 1-139, synthetic gene in pET28a, E. coli BL21(DE3); N-terminal His tag removed by thrombin; disulfide-linked homodimer
T1 sequence (Q9UHV8 1-139 R53H): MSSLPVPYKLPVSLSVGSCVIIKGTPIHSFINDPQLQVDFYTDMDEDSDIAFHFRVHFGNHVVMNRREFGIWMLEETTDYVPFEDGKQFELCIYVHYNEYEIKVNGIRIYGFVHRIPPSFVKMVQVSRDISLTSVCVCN

T2: Galectin-13 (wild type) (human), Q9UHV8
T2 chain: T1 sequence (Q9UHV8 1-139 R53H) with H53R

B1: Galectin-13 (wild type), Q9UHV8 1-139 (natural protein)
chain: T1 sequence (Q9UHV8 1-139 R53H) with H53R
modifications: here or on the partner: intermolecular disulfide bonds Cys136-Cys138' and Cys138-Cys136' in the dimer; intermolecular disulfide bonds Cys136-Cys138' and Cys138-Cys136' in the dimer

How the values were obtained:
[1] = target: T1, Gal-13 (galectin-13, placental protein 13, PP13); assay: inhibition of hemagglutination of chicken erythrocytes; format: cell-based; conditions: pH 7.4 PBS, on ice; minimum inhibition concentration
Text: inhibition of hemagglutination of chicken erythrocytes on Gal-13 (galectin-13, placental protein 13, PP13) | maltose and arabinose could inhibit the biological activity of […]

[2] = target: T2, Galectin-13 (wild type) (human), Q9UHV8; assay: non-reducing SDS-PAGE; SDS-PAGE of Gal-13 with or without DTT reduction; dimer band at approximately 38 kDa without DTT; conditions: remark: other sources report otherwise
[3] = target: T2, Galectin-13 (wild type) (human), Q9UHV8; assay: native gel or EMSA; native PAGE, 15% separating gel, Tris-glycine buffer, 5 μg protein per lane, 90 V for 3 h; migration compared with Gal-1 (dimer) and C136S/C138S (monomer); conditions: remark: other sources report otherwise
[4] = target: T2, Galectin-13 (wild type) (human), Q9UHV8; assay: SEC; Superdex 75 10/300, PBS pH 7.4, 25 °C, 100 μg protein loaded, 0.5 ml/min; apparent molecular weights from a standard curve; Gal-13 also run in the presence of 10 mM DTT (mostly monomer, small amount of dimer); conditions: remark: other sources report otherwise

Row | Molecule | MIC [1] | stoichiometry N [2] | stoichiometry N [3] | stoichiometry N [4]
1 | OC[C@H]1O[C@H](O[C@H]2[C@H](O)[C@@H](O)C(O)O[C@@H]2CO)[C@H](O)[C@@H](O)[C@@H]1O (some centres unmarked) [maltose] | 12.5 mM (≈ 4.28 mg/mL) |  |  | 
2 | OC1OC[C@H](O)[C@H](O)[C@H]1O (some centres unmarked) [arabinose] | 200 mM (≈ 30 mg/mL) |  |  | 
3 | B1 |  | 2 | 2 | 2
